Data as given in the supplement of paper PMC9170038.

System: MS2 coat protein
Assay: apparent KD of MS2 coat protein; higher = weaker reporter binding
Settings: Eterna round: R107
Summary of the method: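 Apparent KD was obtained for each design as the median of normalised binding-curve fits over its clusters. RNA switches transcribed on-chip from Illumina sequencing clusters were titrated with SNAP-549-labelled MS2 coat protein (twofold steps, 0.7 or 1.5 nM to 3 µM) in 100 mM Tris-HCl pH 7.5, 80 mM KCl, 4 mM MgCl2, without or with constant ligand.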

[1] = input ligand: theophylline 20 uM
[2] = input ligand: tryptophan 2.4 mM
[3] = input ligand: theophylline 2 mM

| Sequence | apparent KD of MS2 coat protein (input ligand: arginine 13.2 mM) | apparent KD of MS2 coat protein [1] | apparent KD of MS2 coat protein [2] | apparent KD of MS2 coat protein (input ligand: none) | apparent KD of MS2 coat protein [3] |
| --- | --- | --- | --- | --- | --- |
| ACGACGCAUAGUGAUACCAGUAGAACAUGAGGAUCACCCAUGUCUGUGGCGCUCCGCCUCUGCCCUUGGCAGCACUAUGCGUCAG [SSTheo B #10] | 0.0119 µM | 0.017 µM | 0.0114 µM | – | – |
| AGCUCGCAUCCUCUAGCGUCAAAGACGCGUCGAGGACCGGUACGGCCGCCACUCGACUUGAGGAACACCCAAGUCCUAGCGAGCA [TrypAX 12 #SwitchBubble #AlternativeMS2 #MS2Late #CuTurnoff] | 0.0622 µM | 0.217 µM | 0.29 µM | 0.188 µM | 0.306 µM |
| AUAUGAUCAUACGAUACCAGAAAUGGUAUUCCUUUAUUUCUUACAUGAGGAUCACCCAUGUUCCCUUGGCAGCGUAUGAUCAUAU [ETHB #3] | 0.125 µM | 0.327 µM | 0.303 µM | – | – |
| AAUCUGUCGGGUGAUACCAGCCUCGGCACAUCUCGUGCCGAACAUGAGGAUCACCCAUGUGGCCCUUGGCAGCACAUGACAAAUC [Usreerso] | 0.289 µM | 0.801 µM | 0.52 µM | – | – |
| CGGUAGGUAGGUCGAUAUCUACCCGUAGAAGGAGCGUAAGAAAAUACAGGUAGGUCGCUACGGAACAUGAGCAUCAGCCAUGUCC [SSArg A #12-Alt Ms2] | 0.0139 µM | 0.0206 µM | 0.0126 µM | 0.011 µM | 0.0121 µM |
| CGUGGUGGGACGGAUACCAGCCACCGCGGCAACGCAACAUGAGGAUCACCCAUGUUGGGUGGCCCUUGGCAGCUGUCCUGCGACG [#1 Same State - Theophylline B Attempt #27 (HarryS)] | 0.0115 µM | 0.0116 µM | 0.0101 µM | 0.0117 µM | 0.0117 µM |
| CGAUAUAAGACGGCCGCCACUAUUAUGUAACAAAAUAAACAUGAGGAUCACCCAUGUACAUGGGAUAGGACCGGGUCCAAUAACG [#21 Same State - Tryptophan B] | 0.0987 µM | 0.148 µM | – | – | 0.151 µM |
| AAUCCAAGAAAUGAUACCAGUCCCACUCAGGACAUGAGGAUCACCCAUGUAAUACAGGGAGACCCUUGGCAGCAUCGAAUAAACA [theeternabot_sameState_MS2_Theo_B_33] | 0.178 µM | 0.479 µM | 1.07 µM | – | – |
| AAUAAUCUAGGUGAUACCAGCUCAACAUGAGGAUCACCCAUGUGCUCAUGAAGAGCUGAGAGCCCUUGGCAGCACCUAGAUAAUA [(Theo1)-(Ms2)-(M)'-(T)'-(Theo2)_Design2] | 0.461 µM | 0.676 µM | 1.1 µM | 0.739 µM | 0.0285 µM |
| CUAUAUAUAAGAAGGAGCGACAUGAGGAUCACCCAUGUCUACCACGUCGAAAGACGCUCAUGUCAGGUAGGUCGCUUAUAUAUAG [Astros-Eli-mod1] | 0.108 µM | 0.155 µM | 0.0939 µM | 0.122 µM | 0.139 µM |
| GGACUAACCAGAAGGAGCGGCACGCAGAAACUGCAAAUUCCUCCACACGAGGAUCACCCGUGUCAGGUAGGUCGCUGGUUAGUCG | 0.0336 µM | 0.0306 µM | 0.0231 µM | 0.0215 µM | 0.0276 µM |
| UAUCGUCAGACGGCCGCCACUAGAACAUGAGGAUCACCCAUGUAGGCGGCCGAUUCCUCAUGAACUAGGACCGGGUCUGACGAAU [(Trp1)-(Ms2)-(T)'-(M)'-(Trp2)_Design12] | 0.00818 µM | 0.026 µM | 0.0133 µM | 0.0066 µM | 0.00889 µM |
| AAUAUAUAUCACGAACUGUGGUGUAUGUUGCGAGGACCGGUACGGCCGCCACUCGACCGGUGGUACAUGAGGAUCACCCAUGUUG [XTryp A #10] | 0.0356 µM | 0.082 µM | 0.0581 µM | 0.0572 µM | 0.0564 µM |
| UGUAUGGACUGAAGGAGCGGAAGAUACCAUGAGGAUCACCCAUGGAAUAAGGCGAAAGCCUUCCAGGUAGGUCGCAGUCCAUACU | 0.0161 µM | 0.0239 µM | 0.0198 µM | 0.0183 µM | 0.0239 µM |
| AUGCAUAGCACGGCCGCCACUCCAUGUAAACAUGAGGAUCACCCAUGUAAUUUGGAUGUUUUAUAGAGGACCGGGUGAAAUGCAA [JR_ExcTryptoB_Sub004] | 0.00842 µM | 0.0101 µM | – | – | 0.0103 µM |
| AUUACAUGGAUUACAACUAAAUCAACUGAAGGAGCGUGAAGGAUCACAGGUAGGUCGCAGUACAUGAGGAUCACCCAUGUUAUAA [JR_Nu_SSArginiA_Sub021] | 0.0344 µM | 0.0485 µM | 0.0396 µM | 0.034 µM | 0.0459 µM |
| GUAAUUUUAAGAAGGAGCGUCGAAAAUGGGUAAACAUGAGGAUCACCCAUGUAAAGGGAACGACAGGUAGGUCGCUUAGGAUUAC [AstromonsSSArgB#23] | 0.113 µM | 0.235 µM | 0.198 µM | 0.191 µM | 0.22 µM |
